Assay results: patent US20050176083

T1: human factor VIIIa, P00451
T1 chain: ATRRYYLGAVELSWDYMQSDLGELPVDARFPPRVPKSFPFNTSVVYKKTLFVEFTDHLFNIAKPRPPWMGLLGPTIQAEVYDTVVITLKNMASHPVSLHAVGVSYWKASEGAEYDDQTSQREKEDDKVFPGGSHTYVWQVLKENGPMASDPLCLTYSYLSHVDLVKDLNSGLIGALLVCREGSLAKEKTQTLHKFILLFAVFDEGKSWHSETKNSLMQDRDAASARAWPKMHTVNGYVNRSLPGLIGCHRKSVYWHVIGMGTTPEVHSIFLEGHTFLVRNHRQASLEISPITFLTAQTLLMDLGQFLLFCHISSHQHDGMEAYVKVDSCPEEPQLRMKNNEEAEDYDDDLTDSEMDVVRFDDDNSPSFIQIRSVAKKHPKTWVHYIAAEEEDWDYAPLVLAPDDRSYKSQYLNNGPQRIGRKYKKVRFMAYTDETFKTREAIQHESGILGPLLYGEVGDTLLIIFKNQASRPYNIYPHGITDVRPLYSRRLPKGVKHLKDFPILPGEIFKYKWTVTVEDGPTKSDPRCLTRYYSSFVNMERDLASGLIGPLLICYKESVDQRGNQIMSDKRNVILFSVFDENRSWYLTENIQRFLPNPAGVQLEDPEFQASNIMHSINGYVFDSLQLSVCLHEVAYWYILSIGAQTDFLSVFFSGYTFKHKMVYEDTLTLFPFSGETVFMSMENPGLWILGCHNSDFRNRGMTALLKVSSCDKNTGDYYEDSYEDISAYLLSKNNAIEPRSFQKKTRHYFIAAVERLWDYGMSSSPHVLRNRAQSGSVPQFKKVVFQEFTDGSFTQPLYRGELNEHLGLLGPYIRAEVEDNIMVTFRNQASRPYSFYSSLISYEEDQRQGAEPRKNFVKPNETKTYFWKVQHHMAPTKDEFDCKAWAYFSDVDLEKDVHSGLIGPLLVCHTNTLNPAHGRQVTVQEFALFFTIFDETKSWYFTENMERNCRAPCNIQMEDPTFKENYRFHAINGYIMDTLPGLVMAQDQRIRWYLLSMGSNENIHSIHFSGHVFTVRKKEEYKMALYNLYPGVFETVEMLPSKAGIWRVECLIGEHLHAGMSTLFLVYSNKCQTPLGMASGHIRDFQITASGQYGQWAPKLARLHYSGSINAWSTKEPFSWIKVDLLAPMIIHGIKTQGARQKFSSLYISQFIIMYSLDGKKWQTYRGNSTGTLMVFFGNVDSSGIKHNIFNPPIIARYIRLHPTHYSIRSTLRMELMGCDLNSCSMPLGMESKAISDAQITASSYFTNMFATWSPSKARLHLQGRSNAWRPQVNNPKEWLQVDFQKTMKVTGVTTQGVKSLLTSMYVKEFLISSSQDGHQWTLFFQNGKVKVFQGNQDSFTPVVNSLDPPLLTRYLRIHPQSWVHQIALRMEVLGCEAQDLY

B1: wild-type human activated protein C (recombinant, thrombin-activated) (protein)
chain 1: ANSFLEELRHSSLERECIEEICDFEEAKEIFQNVDDTLAFWSKHVDGDQCLVLPLEHPCASLCCGHGTCIDGIGSFSCDCRSGWEGRFCQREVSFLNCSLDNGGCTHYCLEEVGWRRCSCAPGYKLGDDLLQCHPAVKFPCGRPWKRMEKKRSHL
chain 2: LIDGKMTRRGDSPWQVVLLDSKKKLACGAVLIHPSWVLTAAHCMDESKKLLVRLGEYDLRRWEKWELDLDIKEVFVHPNYSKSTTDNDIALLHLAQPATLSQTIVPICLPDSGLAERELNQAGQETLVTGWGYHSSREKEAKRNRTFVLNFIKIPVVPHNECSEVMSNMVSENMLCAGILGDRQDACEGDSGGPMVASFHGTWFLVGLVSWGEGCGLLHNYGVYTKVSRYLDWIHGHIRDKEAPQKSWAP
B2: wild-type bovine activated protein C (recombinant, thrombin-activated) (protein)
chain 1: ANSFLEELRPGNVERECSEEVCEFEEAREIFQNTEDTMAFWSKYSDGDQCEDRPSGSPCDLPCCGRGKCIDGLGGFRCDCAEGWEGRFCLHEVRFSNCSAENGGCAHYCMEEEGRRHCSCAPGYRLEDDHQLCVSKVTFPCGRLGKRMEKKRKTL
chain 2: IVDGQEAGWGESPWQAVLLDSKKKLVCGAVLIHVSWVLTVAHCLDSRKKLIVRLGEYDMRRWESWEVDLDIKEVIIHPNYTKSTSDNDIALLRLAKPATLSQTIVPICLPDSGLSERKLTQVGQETVVTGWGYRDETKRNRTFVLSFIKVPVVPYNACVHAMENKISENMLCAGILGDPRDACEGDSGGPMVTFFRGTWFLVGLVSWGEGCGRLYNYGVYTKVSRYLDWIYGHIKAQEAPLESQVP

How the values were obtained:
[1] = target: bovine factor Va (in bovine plasma), Q28107
[2] = target: T1, human factor VIIIa, P00451
[3] = target: Q506 mutant human factor Va (FVa Leiden), P12259
[4] = target: human factor Va (normal, from human plasma), P12259
Chain of human factor Va (normal, from human plasma), P12259 (P12259 29-2224): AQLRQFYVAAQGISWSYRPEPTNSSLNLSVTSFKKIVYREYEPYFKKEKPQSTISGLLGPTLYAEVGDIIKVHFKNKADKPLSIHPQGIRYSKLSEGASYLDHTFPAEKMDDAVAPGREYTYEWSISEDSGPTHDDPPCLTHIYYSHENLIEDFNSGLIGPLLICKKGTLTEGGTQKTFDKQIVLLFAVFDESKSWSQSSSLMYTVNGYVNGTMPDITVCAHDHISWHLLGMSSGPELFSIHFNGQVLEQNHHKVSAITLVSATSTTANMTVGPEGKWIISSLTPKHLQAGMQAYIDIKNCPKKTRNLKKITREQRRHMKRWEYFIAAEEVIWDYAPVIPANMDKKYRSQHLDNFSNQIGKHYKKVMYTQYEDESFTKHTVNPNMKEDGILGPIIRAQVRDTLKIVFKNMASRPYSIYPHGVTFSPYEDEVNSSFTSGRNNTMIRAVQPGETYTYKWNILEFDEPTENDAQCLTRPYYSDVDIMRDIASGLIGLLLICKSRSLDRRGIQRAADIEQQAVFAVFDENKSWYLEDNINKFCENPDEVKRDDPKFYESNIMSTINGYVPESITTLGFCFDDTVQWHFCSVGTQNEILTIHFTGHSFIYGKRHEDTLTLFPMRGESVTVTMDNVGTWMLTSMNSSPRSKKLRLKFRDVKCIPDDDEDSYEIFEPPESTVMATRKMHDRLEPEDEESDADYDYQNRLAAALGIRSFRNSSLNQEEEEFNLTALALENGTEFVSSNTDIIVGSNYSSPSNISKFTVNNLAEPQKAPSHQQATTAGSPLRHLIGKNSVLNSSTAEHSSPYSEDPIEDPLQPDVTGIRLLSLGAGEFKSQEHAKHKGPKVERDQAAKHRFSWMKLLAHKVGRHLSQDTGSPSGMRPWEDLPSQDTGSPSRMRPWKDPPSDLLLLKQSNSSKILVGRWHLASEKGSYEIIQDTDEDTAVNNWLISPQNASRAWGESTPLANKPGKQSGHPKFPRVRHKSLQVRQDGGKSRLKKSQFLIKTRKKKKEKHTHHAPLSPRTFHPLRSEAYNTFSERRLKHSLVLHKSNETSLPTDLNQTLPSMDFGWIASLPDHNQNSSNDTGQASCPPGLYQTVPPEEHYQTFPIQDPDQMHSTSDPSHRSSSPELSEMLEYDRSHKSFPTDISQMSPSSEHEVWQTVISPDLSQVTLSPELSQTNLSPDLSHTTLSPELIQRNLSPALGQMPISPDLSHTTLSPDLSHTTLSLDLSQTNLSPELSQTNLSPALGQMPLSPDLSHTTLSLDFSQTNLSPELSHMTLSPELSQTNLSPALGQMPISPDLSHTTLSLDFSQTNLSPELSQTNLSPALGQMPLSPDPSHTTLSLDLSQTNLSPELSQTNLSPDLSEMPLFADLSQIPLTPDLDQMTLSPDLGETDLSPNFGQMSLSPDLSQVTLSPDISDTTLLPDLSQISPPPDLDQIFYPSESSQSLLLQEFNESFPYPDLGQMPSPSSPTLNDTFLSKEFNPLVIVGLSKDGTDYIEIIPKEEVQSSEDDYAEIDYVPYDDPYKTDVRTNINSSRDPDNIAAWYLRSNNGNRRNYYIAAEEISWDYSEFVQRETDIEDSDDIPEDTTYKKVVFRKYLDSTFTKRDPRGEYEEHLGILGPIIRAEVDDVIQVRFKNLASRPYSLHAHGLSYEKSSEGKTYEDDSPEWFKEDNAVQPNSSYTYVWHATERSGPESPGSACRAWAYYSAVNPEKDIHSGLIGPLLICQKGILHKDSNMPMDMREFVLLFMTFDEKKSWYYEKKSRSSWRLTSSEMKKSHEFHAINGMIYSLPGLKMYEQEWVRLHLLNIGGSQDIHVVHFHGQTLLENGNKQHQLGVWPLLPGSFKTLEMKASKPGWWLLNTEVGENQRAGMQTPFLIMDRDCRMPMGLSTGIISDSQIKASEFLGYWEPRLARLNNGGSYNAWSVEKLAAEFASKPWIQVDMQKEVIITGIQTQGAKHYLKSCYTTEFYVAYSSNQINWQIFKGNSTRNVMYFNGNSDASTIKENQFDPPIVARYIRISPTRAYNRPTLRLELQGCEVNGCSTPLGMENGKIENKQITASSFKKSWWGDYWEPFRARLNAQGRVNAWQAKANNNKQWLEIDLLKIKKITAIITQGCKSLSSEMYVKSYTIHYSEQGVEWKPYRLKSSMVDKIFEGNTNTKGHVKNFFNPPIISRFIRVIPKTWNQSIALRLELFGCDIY

Chain of bovine factor Va (in bovine plasma), Q28107 (Q28107 29-2211): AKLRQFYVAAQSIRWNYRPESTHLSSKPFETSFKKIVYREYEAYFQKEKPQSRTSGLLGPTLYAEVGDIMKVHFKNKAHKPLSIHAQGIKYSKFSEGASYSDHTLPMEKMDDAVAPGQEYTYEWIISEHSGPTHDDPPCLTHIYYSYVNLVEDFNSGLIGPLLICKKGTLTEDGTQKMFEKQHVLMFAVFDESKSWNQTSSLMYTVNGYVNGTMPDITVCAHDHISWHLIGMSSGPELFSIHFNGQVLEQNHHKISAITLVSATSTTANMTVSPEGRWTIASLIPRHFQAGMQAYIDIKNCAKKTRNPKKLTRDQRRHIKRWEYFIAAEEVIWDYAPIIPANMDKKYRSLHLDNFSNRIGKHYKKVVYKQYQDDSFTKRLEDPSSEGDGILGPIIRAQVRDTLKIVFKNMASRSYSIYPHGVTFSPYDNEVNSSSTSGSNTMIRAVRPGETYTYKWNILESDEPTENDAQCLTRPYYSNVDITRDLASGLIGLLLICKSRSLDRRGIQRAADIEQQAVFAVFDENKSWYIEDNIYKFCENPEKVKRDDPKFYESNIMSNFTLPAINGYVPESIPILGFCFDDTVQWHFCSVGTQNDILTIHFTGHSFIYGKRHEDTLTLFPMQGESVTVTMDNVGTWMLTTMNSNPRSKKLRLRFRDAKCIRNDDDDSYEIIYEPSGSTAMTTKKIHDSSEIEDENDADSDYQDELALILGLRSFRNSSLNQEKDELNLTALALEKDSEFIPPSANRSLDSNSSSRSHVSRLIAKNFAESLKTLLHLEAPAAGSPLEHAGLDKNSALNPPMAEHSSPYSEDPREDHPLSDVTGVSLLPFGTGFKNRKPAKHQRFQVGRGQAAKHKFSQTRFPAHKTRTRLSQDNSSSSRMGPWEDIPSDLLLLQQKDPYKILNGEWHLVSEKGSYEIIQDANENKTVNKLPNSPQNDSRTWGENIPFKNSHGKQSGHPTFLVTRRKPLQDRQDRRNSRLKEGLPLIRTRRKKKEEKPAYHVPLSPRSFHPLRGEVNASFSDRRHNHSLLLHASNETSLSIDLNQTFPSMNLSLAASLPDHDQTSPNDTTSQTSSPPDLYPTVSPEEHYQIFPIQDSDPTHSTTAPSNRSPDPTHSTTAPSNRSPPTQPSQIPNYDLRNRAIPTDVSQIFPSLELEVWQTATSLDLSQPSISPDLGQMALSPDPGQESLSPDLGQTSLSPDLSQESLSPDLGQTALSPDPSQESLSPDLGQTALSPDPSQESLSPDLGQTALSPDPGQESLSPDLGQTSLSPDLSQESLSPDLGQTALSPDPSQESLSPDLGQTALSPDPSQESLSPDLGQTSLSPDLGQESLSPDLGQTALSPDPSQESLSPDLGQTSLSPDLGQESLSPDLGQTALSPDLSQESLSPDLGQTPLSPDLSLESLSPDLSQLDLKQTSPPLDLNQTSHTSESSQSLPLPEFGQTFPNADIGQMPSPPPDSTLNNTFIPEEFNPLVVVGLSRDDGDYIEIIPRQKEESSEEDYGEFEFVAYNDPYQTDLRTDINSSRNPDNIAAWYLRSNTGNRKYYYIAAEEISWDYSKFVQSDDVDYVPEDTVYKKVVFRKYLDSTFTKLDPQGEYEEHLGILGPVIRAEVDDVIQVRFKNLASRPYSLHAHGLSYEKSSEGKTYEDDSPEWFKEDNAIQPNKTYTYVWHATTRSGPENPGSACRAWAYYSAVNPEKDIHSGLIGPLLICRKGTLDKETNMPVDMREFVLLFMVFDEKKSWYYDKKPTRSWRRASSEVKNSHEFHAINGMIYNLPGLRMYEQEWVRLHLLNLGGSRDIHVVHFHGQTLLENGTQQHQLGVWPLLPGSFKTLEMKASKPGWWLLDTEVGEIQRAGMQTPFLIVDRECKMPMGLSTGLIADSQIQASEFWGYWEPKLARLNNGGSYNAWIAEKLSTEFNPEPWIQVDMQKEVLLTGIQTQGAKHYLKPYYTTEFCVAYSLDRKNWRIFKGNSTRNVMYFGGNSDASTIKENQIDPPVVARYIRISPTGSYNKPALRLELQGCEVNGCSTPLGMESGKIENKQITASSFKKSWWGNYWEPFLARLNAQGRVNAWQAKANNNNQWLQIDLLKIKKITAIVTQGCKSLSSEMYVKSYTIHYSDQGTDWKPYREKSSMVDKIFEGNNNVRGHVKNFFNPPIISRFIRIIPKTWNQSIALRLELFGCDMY
Chain of Q506 mutant human factor Va (FVa Leiden), P12259 (P12259 other isoform, or with tags, fused parts or gaps mutant): as the sequence (P12259 29-2224) above, with R506Q counted along it

Row | Protein | prothrombin time (PT) assay, clotting time in bovine plasma [1] | factor VIIIa inactivation assay (FXa formation, S-2222) with human protein S and factor V [2] | factor VIIIa inactivation assay with bovine protein S and bovine factor V [2] | remaining FVa activity over time (prothrombinase assay); plasma FVa, 0.4 nM APC, phospholipid vesicles [3] | prothrombin time (PT) assay, clotting time in human plasma [4] | remaining FVa activity over time (prothrombinase assay, S2238); 0.76 nM plasma FVa, 0.39 nM APC, phospholipid vesicles [4] | factor VIIIa inactivation assay with human protein S and factor V, low APC concentrations [2]
1 | B1 | wild-type human APC and human APC-SP efficiently prolong clotting time in bovine plasma | the activity of factor VIIIa was inactivated by all APC's from section (2)(i) above but high concentrations were needed | able to inhibit factor VIIIa activity in the presence of bovine protein S and bovine factor V | The addition of wt APC resulted in a slow decrease in FVa activity corresponding to cleavage at Arg306 | Both wild-type human APC and human APC-SP increased clotting times essentially in this PT assay | initial rapid loss of FVa activity that is observed during the first 5 minutes of incubation; slow decrease in FVa activity observed between 5 minutes and 25 minutes of incubation | –
2 | B2 | wild-type bovine APC and its mutant expressed only weak anticoagulant acitivity in bovine plasma | the activity of factor VIIIa was inactivated by all APC's from section (2)(i) above but high concentrations were needed | able to inhibit factor VIIIa activity in the presence of bovine protein S and bovine factor V; worked more efficiently than wild-type human APC and human APC-SP | – | Neither wild-type bovine APC nor bovine APC-SP had any effect in human plasma | – | At low concentrations, neither bovine wild-type APC nor bovine APC-SP could inactivate factor VIIIa
